Laboratory results as given in patent US20200131224A1, “Methods for Synthesis of Radionuclide Complex” (Advanced Accelerator Applications (Italy) S.R.L., priority 2018, published 2020).

Experiment: Radiochemical purity (RCP) of the Drug Substance 72 hours from end of synthesis
Type: physicochemical
Conditions: radiochemical purity 72 hours from end of synthesis; reaction time 5 min; reactor temperature 80 or 100 °C by batch
Description: The reaction temperature has been tested between 80° C. and 100° C. for labeling times of 5 minutes.

| Structure (SMILES) | RCP (%) t72 h [%] |
| --- | --- |
| C[C@@H](O)[C@H](NC(=O)[C@@H]1CSSC[C@H](NC(=O)[C@@H](Cc2ccccc2)NC(=O)CN2CCN(CC(=O)[O-])CCN(CC(=O)[O-])CCN(CC(=O)[O-])CC2)C(=O)N[C@@H](Cc2ccc(O)cc2)C(=O)N[C@H](Cc2c[nH]c3ccccc23)C(=O)N[C@@H](CCCCN)C(=O)N[C@@H]([C@@H](C)O)C(=O)N1)C(=O)O.[177Lu+3] [LT141013B-03, ^177Lu-DOTA0-Tyr^3-Octreotate] | 95.9 |
| C[C@@H](O)[C@H](NC(=O)[C@@H]1CSSC[C@H](NC(=O)[C@@H](Cc2ccccc2)NC(=O)CN2CCN(CC(=O)[O-])CCN(CC(=O)[O-])CCN(CC(=O)[O-])CC2)C(=O)N[C@@H](Cc2ccc(O)cc2)C(=O)N[C@H](Cc2c[nH]c3ccccc23)C(=O)N[C@@H](CCCCN)C(=O)N[C@@H]([C@@H](C)O)C(=O)N1)C(=O)O.[177Lu+3] [LT141013C-03, ^177Lu-DOTA0-Tyr^3-Octreotate] | 95.8 |
